Test results: PMC7549839, “Posttranslational insertion of small membrane proteins by the bacterial signal recognition particle” (PLoS Biology, 2020)

Key:
[1] = target: the molecule itself; assay: SDS-resistant dimer on SDS-PAGE; YohPHis expressed in vivo; whole cells or cell fractions (INV), Tricine-SDS-PAGE, western blot with anti-His antibodies
[2] = target: the molecule itself; assay: SDS-resistant dimer on SDS-PAGE; in vivo expression, 35S pulse-chase labelling with rifampicin; whole cells or fractions TCA precipitated, Tricine-SDS-PAGE, autoradiography

Row | Protein | stoichiometry N [1] | stoichiometry N [2]
1 | MKIILWAVLIIFLIGLLVVTGVFKMIF (natural protein, E. coli, UniProt C1P609 1-27, looked up, YohP, small membrane protein of E. coli, 27 amino acids; also called YohP_(His6); source: E. coli, expressed in vivo from pBad24 (arabinose) or pET19b (IPTG); whole cells TCA precipitated or cell fractions (INV); not shown: His6, C-terminal, kept) [His-tagged YohP (YohPHis)] | 2 | –
2 | MKIILWAVLIIFLIGLLVVTGVFKMIF (natural protein, E. coli, UniProt C1P609 1-27, looked up, YohP, small membrane protein of E. coli, 27 amino acids; also called nontagged YohP; source: E. coli C43(DE3) with pET19b-YohP, expressed in vivo, pulse-labelled with 35S methionine/cysteine; whole cells or cell fractions) [YohP (nontagged)] | – | 2
